Measured values published in paper PMC11169542, “A probe for NIR-II imaging and multimodal analysis of early Alzheimer’s disease by targeting CTGF” (Nature Communications, 2024).
Ends that are not written are not given here.

Columns and labels:
[1] = Parallel artificial membrane permeability assay (PAMPA) mimicking BBB; assay type: in vitro ADME; settings: for PAMPA permeability Pe: precoated PAMPA plate, 40 μM in PBS, 5 h, room temperature, ICP-MS
Method: A parallel artificial membrane permeability assay was performed in a 96-well precoated PAMPA plate system (Corning Gentest # 353015). The experimental solutions of DGC were prepared by diluting the stock solutions (10 mM) in PBS at a final concentration of 40 μM and then added to the donor portion of the plate (300 μL/well), while PBS (200 μL/well) was added to the acceptor portion, and the DMSO concentration was lower than 1%. The filter plate was then coupled with the receiver plate, and the plate assembly was incubated at room temperature without agitation for 5 h. Samples of the initial donor solution (C0) were collected and stored at 4 °C. At the end of the incubation, samples were collected from the donor and acceptor plates and then added to aqua regia (HCl: HNO3, volume ratio = 3:1). The C0 samples were treated similarly. The final concentrations of DGC in the donor, acceptor, and T0 wells were quantified by the ICP-MS system (Thermo Elemental X7, USA). The results were used to calculate an effective permeability (Pe, cm/s) value. Permeability of DGC was calculated using the following Eq. (1):1 Pe={-ln[1-CA(t)/Ceq]}/[A×(1/VD+1/VA)×t] Where A = filter area (0.3 cm^2), t = incubation time (seconds), CA(t) = compound concentration in acceptor well at time t, VD = donor well volume (0.3 mL), VA = acceptor well volume (0.2 mL), CD(t) = compound concentration in donor well at time t, and Ceq was calculated using the following Eq. (2):2 Ceq=[CD(t)×VD+CA(t)×VA]/(VD+VA)

[2] = test system: U87MG cells; test: Cytotoxicity of DGC (CCK-8); assay type: cell-based, human; parameters: key to Cell viability: viability relative to control cells (control = 1); settings: for Cell viability: 24 h, CCK-8, normalized to control
Method: U87MG, SH-SY5Y, and CTX TNA2 cells were seeded into 96-well plates at a density of 5 × 10^3 cells per well and were incubated at 37 °C for 24 h. […] Next, 10 µL of a colorimetric Cell Counting Kit (CCK-8) reagent diluted with 100 µL medium was added to each well, and incubated for 30 min, The absorbance at 450 nm was measured using a microplate reader (Molecular Devices, San Jose, CA, USA). The relative viability was normalized to control cells. The experiment was performed in triplicates.

[3] = target: T1, CTGF (Mus musculus, UniProt P29268); test: In vivo NIR-II imaging of brain after DGC injection; parameters: species or system APP/PS1 and wild-type C57BL/6J mice; settings: APP/PS1 mice
T1 construct: brain sections of the age-matched wild-type C57BL/6J mice were used as controls; from tissue; host or cells: brain of APP/PS1 transgenic and wild-type C57BL/6J mice (sections, living animal, perfused isolated brain)
T1 sequence (P29268 26-348): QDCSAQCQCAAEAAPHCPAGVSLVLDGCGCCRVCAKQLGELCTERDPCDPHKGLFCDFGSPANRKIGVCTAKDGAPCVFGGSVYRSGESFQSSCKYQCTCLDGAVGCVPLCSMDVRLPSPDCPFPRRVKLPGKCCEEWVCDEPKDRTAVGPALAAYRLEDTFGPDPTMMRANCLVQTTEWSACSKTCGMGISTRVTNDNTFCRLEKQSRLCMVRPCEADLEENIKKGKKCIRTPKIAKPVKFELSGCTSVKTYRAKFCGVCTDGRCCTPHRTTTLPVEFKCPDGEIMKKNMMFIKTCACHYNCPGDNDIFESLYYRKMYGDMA
Method: All animal procedures were performed under an approved protocol of the Ethics Committee of Beijing University of Technology, China. Female APP/PS1 mice and age-matched wild-type C57BL/6J mice were shaved before background imaging. For NIR-II imaging in vivo with DGC, the mice (n = 3) were fasted overnight before the experiment and then injected intravenously with DGC (20 mg/kg, 200 μL). NIR-II imaging of the brains was carried out on an In vivo Master (Grand-imaging Technology) equipped with an InGaAs camera C-RED2 (Firstlight) at different time points after injection of DGC (λ ex = 808 nm, 1000 nm longpass (LP) filter (Edmund Optics)). The excitation intensity of the 808 nm laser (Wuhan Grand-imaging Technology) was about […] and the optical images were acquired using an exposure time of 50 ms. Imaging data were analyzed by ImageJ software.

DGC: CTGF-targeting peptide-coated gold nanocluster: one Au26 gold nanocluster coated by eight DAG cyclic peptides, NIR-II and red fluorescence (CDAGRKQKC; also: cyclic peptide, ring not given here, eight peptides on one Au26 nanocluster via Cys Au-S bonds)
BBB permeability class (PAMPA) ([1]; 40 μM): high BBB permeability | PAMPA permeability Mean Pe ([1]; at several concentrations): higher than 1.5 * 10^-6 cm/s | PAMPA permeability Pe ([1]; replicate 1): 2.121 ×10⁻⁶ cm/s | PAMPA permeability Pe ([1]; replicate 2): 2.6 ×10⁻⁶ cm/s | PAMPA permeability Pe ([1]; replicate 3): 1.724 ×10⁻⁶ cm/s | Cell viability ([2]; 5 μM (Au content), replicate 1): 1.188 | Cell viability ([2]; 5 μM (Au content), replicate 2): 1.205 | Cell viability ([2]; 5 μM (Au content), replicate 3): 1.21 | Cell viability ([2]; 10 μM (Au content), replicate 1): 1.185 | Cell viability ([2]; 10 μM (Au content), replicate 2): 1.16 | Cell viability ([2]; 10 μM (Au content), replicate 3): 1.163 | Cell viability ([2]; 20 μM (Au content), replicate 1): 1.112 | Cell viability ([2]; 20 μM (Au content), replicate 2): 1.134 | Cell viability ([2]; 20 μM (Au content), replicate 3): 1.136 | Cell viability ([2]; 50 μM (Au content), replicate 1): 1.152 | Cell viability ([2]; 50 μM (Au content), replicate 2): 1.117 | Cell viability ([2]; 50 μM (Au content), replicate 3): 1.103 | Cell viability ([2]; 100 μM (Au content), replicate 1): 1.07 | Cell viability ([2]; 100 μM (Au content), replicate 2): 1.085 | Cell viability ([2]; 100 μM (Au content), replicate 3): 1.085 | Cell viability ([2]; 200 μM (Au content), replicate 1): 1.067 | Cell viability ([2]; 200 μM (Au content), replicate 2): 1.053 | Cell viability ([2]; 200 μM (Au content), replicate 3): 1.071 | Cell viability ([2]; 500 μM (Au content), replicate 1): 1.0892 | Cell viability ([2]; 500 μM (Au content), replicate 2): 1.102 | Cell viability ([2]; 500 μM (Au content), replicate 3): 1.058 | cytotoxicity ([2]; DGC incubation 24 h, CCK-8): did not cause any obvious cytotoxicity | NIR-II fluorescence in the brains ([3]; 24 h after injection): still observed | time of peak brain NIR-II signal ([3]; after tail vein injection of DGC): 4 h
